Measurements published in patent US20250263470A1 (AstraZeneca / MedImmune, published 2025).
Positions count from the first letter of the chain named.

B1: FBC-39 (antibody, V domains shown)
VH: EVQLVVSGGGLVKPGGSLRLSCAASGLSFLNAWMSWVRQAPGKGLEWVGRIKSNTDGGTTDYAAPVKGRFSISRDDSKNMLFLHMSSLRTEDTAVYYCATDGPYSDDFRSGYAARYRYFGMDVWGQGTTVTVSS
VL: DIQMTQSPSSVSASVGDRVTITCRASQDISTWLAWYQQKPGKAPKLLIYAASSLQSGVPSRFSGSGSGTDFTLTISSLQPEDFATYFCQQANSFPPTFGQGTKLEIK
B2: FBC-39 FTL (antibody, V domains shown)
VH: B1 VH with V6E, L27F, S28T, S71T, M80T, F82Y, H84Q, R89K, A99T
VL: B1 VL with F87Y
B3: FBC-39 FSL (antibody, V domains shown)
VH: B1 VH with V6E, L27F, S71T, M80T, F82Y, H84Q, R89K, A99T
VL: B1 VL with F87Y
B4: FBC-39 LTL (antibody, V domains shown)
VH: B1 VH with V6E, S28T, S71T, M80T, F82Y, H84Q, R89K, A99T
VL: B1 VL with F87Y
B5: FBC-39 LSL (antibody, V domains shown)
VH: B1 VH with V6E, S71T, M80T, F82Y, H84Q, R89K, A99T
VL: B1 VL with F87Y
B6: FBD-56 (antibody, V domains shown)
VH: EVQLVESGGHLVQPGRSLRLSCAASGFTFEDYAMNWVRQAPGKGLEWVSVISWDSGRIGYADSVKGRFTISRDNAKNSSYLQMNSLRPEDTALYYCVRDMLAYYSDNSGKKYNVYGMDVWGQGTTVTVSS
VL: EIVLTQSPATLSLSPGERATLSCRASQSVSTFLAWYQQKPGQAPRLLMYDASNRATGIPARFSGSGSGTDFTLTISSLEPEDFAIYYCQQRSHWPPIFGQGTRLEIK
B7: FBD-94 (antibody, V domains shown)
VH: EVQLVESGGGLVQPGRSLRLSCAVSGFIFEDYAINWVRQAPGKGLEWVSIISWDSGRIGYADSVRGRFTISRDNAKNSSFLQMNSLRPEDTAVYYCVKDMLAYYYDGSGIRYNLYGMDVWGQGTTVTVSS
VL: B6 VL with Q27R, V29I, S30T, M48I, I58V, S76N, E81D, S92D

molecular target: HA of influenza B virus B/Florida/4/2006 (yamagata) (influenza B virus B/Florida/4/2006); experiment: cell-based or functional assay

Row | Binder | Neutralization (Ave IC50 ug/ml)
1 | B1 | 0.046 µg/mL
2 | B2 | 0.014 µg/mL
3 | B3 | 0.017 µg/mL
4 | B4 | 0.023 µg/mL
5 | B5 | 0.016 µg/mL
6 | B6 | 0.013 µg/mL
7 | B7 | 0.016 µg/mL
